# Reference: patent US12565506B2, “Nitrogen-containing macrocyclic conjugates as radiopharmaceuticals” (Clarity Pharmaceuticals Ltd., priority 2008, dated 2026)
# Assay: Serum stability of 64Cu-labelled Sar-peptides by radio-HPLC
# Type: in vitro ADME
# Details: human male AB serum, 37° C.
# Description: Human male AB serum (200 μL) was added to a solution of [^64CuL^1-Tyr^3-octreotate]^2+ (200 μL). This solution was incubated in a water bath at 37° C. At time points of 1 hr, 4 hr and 20 hr an aliquot of this serum solution (100 μL) was removed for radio-HPLC analysis: acetonitrile (200 μL) was added to the serum aliquot to precipitate serum proteins. This mixture was filtered and the acetonitrile evaporated under a stream of argon gas. The final volume was <100 μL. The solution was frozen at −70° C. until injection onto the HPLC column. 1 hr: Retention time 12.716 min, >95% radiochemical yield; 4 hr: Retention time 12.725 min, >95% radiochemical yield; 20 hr: Retention time 12.800 min, >95% radiochemical yield.
# A single time point serum stability study for [^64CuL^1-Lys3-bombesin]^2+ was conducted in the same way as studies for [^64CuL^1-Tyr^3-octreotate]^2+. An aliquot of [^64CuL^1-Lys3-bombesin]^2+ (200 μL) was added to human male AB serum and incubated at 37° C. After 2 hr, the sample was subjected to the same treatment as described above and injected onto the HPLC column. 2 hr: Retention time 12.828 min, >95% radiochemical yield.
SMILES,radiochemical yield (intact complex by radio-HPLC) after incubation in serum (2 hr),radiochemical yield (intact complex by radio-HPLC) after incubation in serum (1 hr),radiochemical yield (intact complex by radio-HPLC) after incubation in serum (4 hr),radiochemical yield (intact complex by radio-HPLC) after incubation in serum (20 hr)
"CSCC[C@H](NC(=O)[C@H](CC(C)C)NC(=O)[C@H](Cc1c[nH]cn1)NC(=O)CNC(=O)[C@@H](NC(=O)[C@H](C)NC(=O)[C@H](Cc1c[nH]c2ccccc12)NC(=O)[C@H](CCC(N)=O)NC(=O)[C@H](CC(N)=O)NC(=O)CNC(=O)[C@H](CC(C)C)NC(=O)[C@H](CCCCNC(=O)CCCC(=O)NC12CNCCNCC(N)(CNCCNC1)CNCCNC2)NC(=O)[C@H](CCC(N)=O)NC(=O)[C@@H]1CCC(=O)N1)C(C)C)C(N)=O (64Cu complex, metal not drawn) [[^64CuL^1-Lys3-bombesin]^2+]",> 95%,–,–,–
CC(O)[C@H](NC(=O)C1CSSC[C@H](NC(=O)[C@@H](Cc2ccccc2)NC(=O)CCCC(=O)N[C@]23CNCCNC[C@]4(N)C[N]5CC[N](C2)[Cu]52([CH3])([CH3])[N](CC[N]2C3)C4)C(=O)N[C@@H](Cc2ccc(O)cc2)C(=O)N[C@H](Cc2c[nH]c3ccccc23)C(=O)N[C@@H](CCCCN)C(=O)N[C@@H](C(C)O)C(=O)N1)C(=O)O (stereo partly shown) [[^64CuL^1-Tyr^3-octreotate]^2+],–,> 95%,> 95%,> 95%
